Drawing on the Immune Epitope Database (IEDB), this text covers Kd for four sequences.

The target of assay [1] is HLA-A*02:19. The assay is described as follows: IEDB peptide-MHC binding, purified MHC/competitive/fluorescence; filed as Kd, often an IC50 or EC50 that approximates it; ≥ and ≤ were set here for values at or beyond the usual limits of such assays. Particulars: source organism: Burkholderia mallei SAVP1.
Assay [2] has as its target HLA-A*02:01. The assay is described as above. Particulars: source organism: Burkholderia mallei SAVP1.
Another assay deals with HLA-B*15:17. The assay is described as follows: IEDB peptide-MHC binding, purified MHC/direct/fluorescence; filed as Kd, often an IC50 or EC50 that approximates it; ≥ and ≤ were set here for values at or beyond the usual limits of such assays.
In a further assay the target is HLA-B*15:01. The assay is described as above.
The target of a further assay is HLA-B*27:05. The assay is described as above.
Assay [3] concerns the target HLA-A*02:01. The assay is described as above.
Assay [4] addresses HLA-B*57:01. The description is as above.
For a further assay, the target named is HLA-A*03:01. Described as above.
The next assay has as its target HLA-B*07:02. The description is as above.
The target in another assay is HLA-B*58:01. Described as above.
A further assay deals with HLA-A*01:01. The assay is described as above.
Assay [5] deals with HLA-B*18:01. In words: IEDB peptide-MHC binding, purified MHC/competitive/fluorescence; filed as Kd, often an IC50 or EC50 that approximates it; ≥ and ≤ were set here for values at or beyond the usual limits of such assays. Particulars: source organism: Influenza A virus (A/ruddy turnstone/Delaware/67/1998(H12N4)).
Assay [6] concerns the target HLA-A*69:01. Described as above. Particulars: source organism: Influenza A virus (A/ruddy turnstone/Delaware/67/1998(H12N4)).
For the next assay, the target named is HLA-A*26:01. Described as above. Particulars: source organism: Influenza A virus (A/ruddy turnstone/Delaware/67/1998(H12N4)).
The target in another assay is HLA-B*39:01. The assay is described as above. Particulars: source organism: Influenza A virus (A/ruddy turnstone/Delaware/67/1998(H12N4)).
The target in assay [7] is HLA-B*57:01. The description is as above. Particulars: source organism: Influenza A virus (A/ruddy turnstone/Delaware/67/1998(H12N4)).
Assay [8] addresses HLA-B*46:01. Described as above. Particulars: source organism: Influenza A virus (A/ruddy turnstone/Delaware/67/1998(H12N4)).
The next assay deals with HLA-B*27:03. The description is as above. Particulars: source organism: Influenza A virus (A/ruddy turnstone/Delaware/67/1998(H12N4)).
Another assay has as its target HLA-B*51:01. The description is as above. Particulars: source organism: Influenza A virus (A/ruddy turnstone/Delaware/67/1998(H12N4)).
The target in the next assay is HLA-A*68:02. The assay is described as follows: IEDB peptide-MHC binding, purified MHC/direct/fluorescence; filed as Kd, often an IC50 or EC50 that approximates it; ≥ and ≤ were set here for values at or beyond the usual limits of such assays. Particulars: source organism: Influenza A virus (A/ruddy turnstone/Delaware/67/1998(H12N4)).
Assay [9] has as its target HLA-A*02:19. The description is as above. Particulars: source organism: Influenza A virus (A/ruddy turnstone/Delaware/67/1998(H12N4)).
The target in a further assay is HLA-A*11:01. Described as above.
The target of another assay is HLA-A*02:03. Described as above. Particulars: source organism: Influenza A virus (A/ruddy turnstone/Delaware/67/1998(H12N4)).
A further assay addresses HLA-A*02:12. The assay is described as above. Particulars: source organism: Influenza A virus (A/ruddy turnstone/Delaware/67/1998(H12N4)).
Assay [10] has as its target HLA-B*18:01. Described as above. Particulars: source organism: Bacillus anthracis.
Assay [11] concerns the target HLA-A*69:01. The description is as above. Particulars: source organism: Bacillus anthracis.
The target of another assay is HLA-A*31:01. The assay is described as above. Particulars: source organism: Bacillus anthracis.
A further assay deals with HLA-B*48:01. The assay is described as above. Particulars: source organism: Bacillus anthracis.
In another assay the target is HLA-B*08:01. The description is as above. Particulars: source organism: Bacillus anthracis str. A2012.
Assay [12] has as its target HLA-B*46:01. The description is as above. Particulars: source organism: Bacillus anthracis.
The target in a further assay is HLA-B*40:01. Described as above. Particulars: source organism: Bacillus anthracis.
Setting [13] is: source organism: Coxiella burnetii.
The mark [14] stands for this setting: source organism: Bacillus anthracis.

One may read the Kd as the free concentration of one partner at which half of the binding sites on the other are occupied at equilibrium, for simple one-to-one binding. For IMALKQAGL, the Kd with HLA-A*02:19 [1] was 0.0045 µM; with HLA-A*02:01 [2] it was 0.0445 µM.

As to ITLYEYDHF, the dissociation constant (Kd) in the assay with HLA-B*15:17 (setting [13]) was 0.0126 µM; with HLA-B*15:01 (setting [13]) it was no less than 20 µM; in the assay with HLA-B*27:05 (setting [13]), no less than 20 µM; in the assay with HLA-A*02:01 [3] (setting [13]), no less than 20 µM; with HLA-B*57:01 [4] (setting [13]), 0.13 µM; in the assay with HLA-A*03:01 (setting [13]) it was no less than 20 µM. The figures for the Kd with HLA-B*07:02 (setting [13]), with HLA-B*58:01 (setting [13]) and with HLA-A*01:01 (setting [13]) were no less than 20 µM, 0.885 µM and no less than 20 µM, respectively.

As to IVFMWAIHH, the Kd with HLA-B*18:01 [5], in the assay with HLA-A*69:01 [6], with HLA-A*26:01, in the assay with HLA-B*39:01, in the assay with HLA-B*57:01 [7] and with HLA-B*46:01 [8] was no less than 20 µM throughout. Further, the Kd in the assay with HLA-B*27:03 is no less than 20 µM; in the assay with HLA-B*51:01 it was no less than 20 µM; with HLA-A*68:02 it was no less than 20 µM; with HLA-A*02:19 [9], no less than 20 µM; in the assay with HLA-A*11:01 (source organism: Influenza A virus (A/ruddy turnstone/Delaware/67/1998(H12N4))) it was 0.187 µM; with HLA-A*02:03, no less than 20 µM. In addition, the Kd with HLA-A*02:12 was no less than 20 µM.

PTDYAKPQY: the Kd with HLA-B*18:01 [10], in the assay with HLA-B*15:17 (setting [14]), with HLA-A*69:01 [11], with HLA-A*31:01, with HLA-B*15:01 (setting [14]) and in the assay with HLA-B*48:01 was no less than 20 µM in each case. Moreover, the Kd with HLA-B*27:05 (setting [14]), with HLA-A*02:01 [3] (setting [14]), with HLA-B*57:01 [4] (setting [14]), with HLA-B*08:01, with HLA-A*11:01 (setting [14]) and with HLA-B*46:01 [12] was no less than 20 µM throughout. Further, the Kd was no less than 20 µM with HLA-A*03:01 (setting [14]); no less than 20 µM in the assay with HLA-B*07:02 (setting [14]); no less than 20 µM with HLA-B*58:01 (setting [14]); no less than 20 µM in the assay with HLA-B*40:01; 0.0525 µM with HLA-A*01:01 (setting [14]).
